One test concerns the target T1, hKLB.
T1 construct: also called human beta-Klotho on 293 cells
The test can be described thus: FACS on 293 cells expressing hKLB, antibody at 0.8 ug/ml.

The target in test [1] is T2, FGFR3-IIIc (human, UniProt P22607 23-375, limits assumed).
T2 construct: also called human FGFR3-IIIc
T2 sequence: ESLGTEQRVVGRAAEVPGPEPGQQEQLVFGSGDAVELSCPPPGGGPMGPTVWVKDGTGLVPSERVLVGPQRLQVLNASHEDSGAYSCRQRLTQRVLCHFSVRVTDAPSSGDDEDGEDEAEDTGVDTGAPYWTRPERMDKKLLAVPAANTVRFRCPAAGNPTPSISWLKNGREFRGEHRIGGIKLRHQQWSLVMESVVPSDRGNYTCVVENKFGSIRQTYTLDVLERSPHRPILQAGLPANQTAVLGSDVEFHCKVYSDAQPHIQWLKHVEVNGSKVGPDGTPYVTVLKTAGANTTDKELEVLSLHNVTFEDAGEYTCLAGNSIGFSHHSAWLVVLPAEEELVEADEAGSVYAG
The test can be described thus: surface plasmon resonance (Biacore). (Surface plasmon resonance follows binding to a sensor surface in real time, without labels.)

In test [2] the target is T2, FGFR3-IIIc. Description: blocking ELISA: FGFR3-IIIc-Fc captured on an anti-human Fc plate, antibody titrated, FGF-1 (with heparin) is the blocked ligand, bound FGF-1 read as OD450.
Description: The plate was washed 5 times before being added with the antibody and FGF ligand mixtures, which was prepared as 49 μL 100 ng/mL FGF ligand, 1 μL 25 mg/mL Heparin (Sigma-Aldrich) and 50 μL antibody dilutions. After shaking at RT for 2 h, the plate was washed 5 times. Bound ligand was detected by subsequent incubations at RT with 0.5 μg/mL biotinylated anti-FGF antibodies (R&D Biosystems) for 0.5 h, 1:2,500-diluted Streptavidin-HRP (Invitrogen) for 0.5 h and the TMB substrate until enough color development.
The target of the next test is T3, FGFR1-IIIb (human, UniProt P11362-19 22-376, limits assumed).
T3 construct: Soluble FGFR antigen in SPR
T3 sequence (looked up): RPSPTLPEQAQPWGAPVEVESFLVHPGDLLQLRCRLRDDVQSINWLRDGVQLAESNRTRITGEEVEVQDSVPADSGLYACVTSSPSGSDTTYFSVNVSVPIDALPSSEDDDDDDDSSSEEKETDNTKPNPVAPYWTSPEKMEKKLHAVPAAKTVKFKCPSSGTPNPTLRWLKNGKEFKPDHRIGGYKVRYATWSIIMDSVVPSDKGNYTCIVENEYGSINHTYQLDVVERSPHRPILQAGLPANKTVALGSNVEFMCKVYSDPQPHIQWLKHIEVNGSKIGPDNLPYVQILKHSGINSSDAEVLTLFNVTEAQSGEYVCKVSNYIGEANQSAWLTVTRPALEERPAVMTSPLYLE
Description: SPR (Biacore T100), IgG captured by anti-human Fc, FGFR flowed.

Test [3] addresses T2, FGFR3-IIIc. The test is described as above.
Description: (§1) A saturated amount of anti-human Fc monoclonal antibody was immobilized onto a CM5 biosensor chip by following the product instructions. […] FGFR antigens of various concentrations were injected at a flow rate 30 μL/min. After each binding cycle, flow cells were regenerated using 3M MgCl₂. Kinetic analyses were performed using the T100 evaluation software to obtain the kinetic and affinity constants.
For test [4], the target named is T4, FGFR2-IIIc (human, UniProt P21802 22-377).
T4 construct: also called human FGFR2-IIIc; FGFR2-IIIc-His
T4 sequence (P21802 22-377 limits assumed): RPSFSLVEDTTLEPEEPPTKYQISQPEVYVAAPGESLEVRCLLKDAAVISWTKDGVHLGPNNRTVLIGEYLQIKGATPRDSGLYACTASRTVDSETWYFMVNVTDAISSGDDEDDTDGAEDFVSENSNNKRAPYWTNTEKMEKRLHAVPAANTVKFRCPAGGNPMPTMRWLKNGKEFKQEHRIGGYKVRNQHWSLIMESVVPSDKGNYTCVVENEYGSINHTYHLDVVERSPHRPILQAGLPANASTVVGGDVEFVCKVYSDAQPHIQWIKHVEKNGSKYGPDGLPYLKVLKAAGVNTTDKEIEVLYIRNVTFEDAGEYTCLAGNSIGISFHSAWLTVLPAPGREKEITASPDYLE
Described as above.
Description: as §1

The target of test [5] is T2, FGFR3-IIIc. The test can be described thus: SPR.
Description: as §1
(§2) 1.3 variants were determined by capturing FGFR4-Fc and flowing the antibody Fab fragments (Table 12).
Test [6] deals with T4, FGFR2-IIIc. The test can be described thus: SPR.
Description: as §1, §2

T1 sequence (chain, as listed by the source limits assumed): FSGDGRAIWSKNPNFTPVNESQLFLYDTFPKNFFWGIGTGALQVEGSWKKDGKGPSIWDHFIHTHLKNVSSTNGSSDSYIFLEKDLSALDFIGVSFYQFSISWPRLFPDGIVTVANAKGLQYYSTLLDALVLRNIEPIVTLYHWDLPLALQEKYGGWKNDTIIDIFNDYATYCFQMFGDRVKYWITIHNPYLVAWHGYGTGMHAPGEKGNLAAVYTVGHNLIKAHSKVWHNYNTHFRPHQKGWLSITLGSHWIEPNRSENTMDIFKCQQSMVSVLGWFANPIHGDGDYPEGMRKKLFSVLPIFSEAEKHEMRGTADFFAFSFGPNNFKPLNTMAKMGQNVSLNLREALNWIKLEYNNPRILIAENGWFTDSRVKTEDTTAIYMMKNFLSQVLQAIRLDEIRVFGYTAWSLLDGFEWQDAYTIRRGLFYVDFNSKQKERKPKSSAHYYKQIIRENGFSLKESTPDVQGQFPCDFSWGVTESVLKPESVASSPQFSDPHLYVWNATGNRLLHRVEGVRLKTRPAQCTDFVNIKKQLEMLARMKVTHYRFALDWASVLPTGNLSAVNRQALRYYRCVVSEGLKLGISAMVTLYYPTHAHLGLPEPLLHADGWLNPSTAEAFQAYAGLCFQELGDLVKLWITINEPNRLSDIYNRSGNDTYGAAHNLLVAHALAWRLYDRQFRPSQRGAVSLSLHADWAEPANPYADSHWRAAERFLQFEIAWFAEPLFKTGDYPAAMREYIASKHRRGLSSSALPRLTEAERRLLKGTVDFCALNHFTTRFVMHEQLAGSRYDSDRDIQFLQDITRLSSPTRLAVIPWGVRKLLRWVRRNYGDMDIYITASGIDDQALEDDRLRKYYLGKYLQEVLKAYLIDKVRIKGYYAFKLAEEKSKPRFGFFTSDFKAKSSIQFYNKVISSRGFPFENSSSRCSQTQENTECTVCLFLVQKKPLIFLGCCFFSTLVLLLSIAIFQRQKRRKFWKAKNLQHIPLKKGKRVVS
Description for FGFR1-IIIb: as §1

B1: 8H7 (antibody, V domains shown)
VH: QVQLQQPGAEIVKPGASVRLSCKASGYSFTSYWIHWVKQRPGQGLEWIGEIDPSVSNSNYNQKFKGKATLTADKSSSTAYMQLSGLTSEDSAVYFCVRLGVMVYGSSPFWFAYWGQGTLVTVSA
VL: DIVMTQSQKFMSTSVGDRVSITCKASQFVSDAVAWYQQKPGQSPKLLICSASYRYTGVPDRFTGSGSGTDFTFTISSVRTEDLAVYYCQQHYIVPYTFGGGTTLEIE
Consider B1, for which the binding result with hKLB was “binds”.

B2: 2B1.1.2 (antibody, V domains shown)
VH: EVQLVESGGGLVQPGGSLRLSCAASGFTFTSTGISWVRQAPGKGLEWVGRYWAWDGSTNYADSVKGRFTISADTSKNTAYLQMNSLRAEDTAVYYCARTYGIYDTYDNYTEYVMDYWGQGTLVTVSS
VL: DIQMTQSPSSLSASVGDRVTITCRASQDVDTSLAWYKQKPGKAPKLLIYSASFLYSGVPSRFSGSGSGTDFTLTISSLQPEDFATYYCQQSTGHPQTFGQGTKVEIKR
The term Kd denotes the concentration at which binding is half-saturated. A lower Kd goes with a tighter complex. Molecule B2 displayed a dissociation constant (Kd) with FGFR3-IIIc [1] of 0.0908 nM.

B3: 2B.1.3.12 (antibody, human IgG1, kappa, V domains shown)
VH: EVQLVESGGGLVQPGGSLRLSCAASGFPFTSTGISWVRQAPGKGLEWVGRTHLGDGSTNYADSVKGRFTISADTSKNTAYLQMNSLRAEDTAVYYCARTYGIYDTYDMYTEYVMDYWGQGTLVTVSS
VL: DIQMTQSPSSLSASVGDRVTITCRASQDVDTSLAWYKQKPGKAPKLLIYSASFLYSGVPSRFSGSGSGTDFTLTISSLQPEDFATYYCQQSTGHPQTFGQGTKVEIKR
notes: Full IgG1/kappa chains; also called Mab 2B.1.3.12
Turning to B3, the “IC50 (read off the curve)” value with FGFR3-IIIc [2] was 2 to 3 nM. Besides, the binding result with FGFR1-IIIb was “no binding (tested: 500 nM)”. The dissociation constant (Kd) in the test with FGFR3-IIIc [3] stood at 0.72 nM; with FGFR2-IIIc [4], 6.1 nM; with FGFR3-IIIc [1], 0.28 nM; with FGFR3-IIIc [5] it was 0.72 nM; with FGFR2-IIIc [6], 6.1 nM.

B4: 2B.1.1.6 (antibody, human IgG1, kappa, V domains shown)
VH: EVQLVESGGGLVQPGGSLRLSCAASGFTFTSTGISWVRQAPGKGLEWVGRYWAWDGSTNYADSVKGRFTISADTSKNTAYLQMNSLRAEDTAVYYCARTYGIYDTYDEYTEYVMDYWGQGTLVTVSS
VL: DIQMTQSPSSLSASVGDRVTITCRASQDVDTSLAWYKQKPGKAPKLLIYSASFLYSGVPSRFSGSGSGTDFTLTISSLQPEDFATYYCQQSTGHPQTFGQGTKVEIKR
notes: Full IgG1/kappa chains
In the test with FGFR3-IIIc [1], B4 gave a dissociation constant Kd of 0.0796 nM.

B5: 2B1.1.12 (antibody, V domains shown)
VH: EVQLVESGGGLVQPGGSLRLSCAASGFPFTSTGISWVRQAPGKGLEWVGRYWAWDGSTNYADSVKGRFTISADTSKNTAYLQMNSLRAEDTAVYYCARTYGIYDTYDMYTEYVMDYWGQGTLVTVSS
VL: DIQMTQSPSSLSASVGDRVTITCRASQDVDTSLAWYKQKPGKAPKLLIYSASFLYSGVPSRFSGSGSGTDFTLTISSLQPEDFATYYCQQSTGHPQTFGQGTKVEIKR
B5 registered an equilibrium dissociation constant (Kd) in the test with FGFR3-IIIc [1] of 0.142 nM.

B6: 2B.1.3.10 (antibody, human IgG1, kappa, V domains shown)
VH: EVQLVESGGGLVQPGGSLRLSCAASGFPFTSQGISWVRQAPGKGLEWVGRTHLGDGSTNYADSVKGRFTISADTSKNTAYLQMNSLRAEDTAVYYCARTYGIYDTYDKYTEYVMDYWGQGTLVTVSS
VL: DIQMTQSPSSLSASVGDRVTITCRASQDVDTSLAWYKQKPGKAPKLLIYSASFLYSGVPSRFSGSGSGTDFTLTISSLQPEDFATYYCQQSTGHPQTFGQGTKVEIKR
notes: Full IgG1/kappa chains; also called Mab 2B.1.3.10
As to B6, the “IC50 (read off the curve)” value in the test with FGFR3-IIIc [2] is 2 to 3 nM. For the same molecule, in the test with FGFR1-IIIb, the binding result is on record as “no binding (tested: 500 nM)”. Besides, the Kd is 0.25 nM with FGFR3-IIIc [3] and 1.1 nM in the test with FGFR2-IIIc [4].

B7: 2B1.1.10 (antibody, V domains shown)
VH: EVQLVESGGGLVQPGGSLRLSCAASGFPFTSQGISWVRQAPGKGLEWVGRYWAWDGSTNYADSVKGRFTISADTSKNTAYLQMNSLRAEDTAVYYCARTYGIYDTYDKYTEYVMDYWGQGTLVTVSS
VL: DIQMTQSPSSLSASVGDRVTITCRASQDVDTSLAWYKQKPGKAPKLLIYSASFLYSGVPSRFSGSGSGTDFTLTISSLQPEDFATYYCQQSTGHPQTFGQGTKVEIKR
Turning to B7, in the test with FGFR3-IIIc [1], binding was characterised by a dissociation constant (Kd) of 0.198 nM.

B8: 2B1.1.4 (antibody, V domains shown)
VH: EVQLVESGGGLVQPGGSLRLSCAASGFTFTSTGISWVRQAPGKGLEWVGRYWAWDGSTNYADSVKGRFTISADTSKNTAYLQMNSLRAEDTAVYYCARTYGIYDIYGGYTEYVMDYWGQGTLVTVSS
VL: DIQMTQSPSSLSASVGDRVTITCRASQDVDTSLAWYKQKPGKAPKLLIYSASFLYSGVPSRFSGSGSGTDFTLTISSLQPEDFATYYCQQSTGHPQTFGQGTKVEIKR
B8 came in with a dissociation constant (Kd) with FGFR3-IIIc [1] of 0.153 nM.

B9: 2B1.1.8 (antibody, V domains shown)
VH: EVQLVESGGGLVQPGGSLRLSCAASGFPFTSLGISWVRQAPGKGLEWVGRYWAWDGSTNYADSVKGRFTISADTSKNTAYLQMNSLRAEDTAVYYCARTYGIYDIYEKYTEYVMDYWGQGTLVTVSS
VL: DIQMTQSPSSLSASVGDRVTITCRASQDVDTSLAWYKQKPGKAPKLLIYSASFLYSGVPSRFSGSGSGTDFTLTISSLQPEDFATYYCQQSTGHPQTFGQGTKVEIKR
For B9, in the test with FGFR3-IIIc [1], the dissociation constant (Kd) amounted to 0.112 nM.

B10: 11D4 (antibody, V domains shown)
VH: QVQVKESGPGLVAPSQSLSITCTVSGFSLTNYGVSWIRQPPGKGLEWLGVIWGDGSINYHSALISRLTITKDNSKSQVFLKLNSLEADDTATYYCAKTHDWFDYWGQGTLVTVSA
VL: DIQMTQTPSSLSASLGDRVTINCRASQDISNYFNWYQQKPNGTIKLLIYYTSRLQSGVPSRFSGSGSGTDYSLTISNLEQEDKATYFCHQVRTLPWTFGGGTKLEIK
Regarding B10, the binding result with hKLB is on record as “binds”.

B11: 25F7 (antibody, V domains shown)
VH: EVQLQQSGAELLKPGASVRLSCTASGFNIQDTFTHWVRQRPEQGLEWIGRIDPSNGNTKYDPKFQGKAKILADTSSNTAYLQLIGLTSEDTAVYYCASRALGNGYAMDYWGQGTSVTVSS
VL: DIQMTQSSSYLSVSLGGRVTITCKASDHINNWLAWYQQKPGNAPRLLISGASNLETGIPSRFSGSGSGKDYTLTITSLQTEDVATYYCQQYWNTPFTFGSGTKLEIK
In the case of B11, the binding result in the test with hKLB is recorded as “binds”.

B12: 14C6 (antibody, V domains shown)
VH: QIQLQQSGAELMKPGASVRMSCKASGYTFSSYWIEWVKQRSGHGLEWIGEIFPGGGSTIYNENFRDKATFTADTSSNTAYMQLSSLTSEDSAVYFCARRGYYDAAWFDYWGQGTLVTVSA
VL: QIVLTQSPAIMSASPGERVTLTCSASSSLSSSYLYWYQQKPGSSPKLWIYGASNLASGVPGRFSGSGSGTSYSLTISSMEAEDAASYFCHQWSSYPLTFGSGTKLELK
Consider B12, for which the binding result in the test with hKLB is “binds”.

B13: 24A1 (antibody, V domains shown)
VH: QVQLKQSGAELVRPGTSVTLSCKASGYTFTDYEMHWMKQTPVYGLEWIGAIWPENADSVYNQKFKGKVTLTADKSSSTAYMDLRSLTSEDSAVYYCTREGGNYWGQGTTLTVSS
VL: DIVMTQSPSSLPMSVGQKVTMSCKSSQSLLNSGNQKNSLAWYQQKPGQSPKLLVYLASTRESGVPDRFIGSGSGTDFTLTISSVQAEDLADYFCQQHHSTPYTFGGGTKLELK
On to B13, for which, in the test with hKLB, the binding result is reported as “binds”.

B14: 5F8 (antibody, V domains shown)
VH: EVQLQQSGTELVRPGASVKLSCTSSDFNIKDTYIHWVKQRPEQGLDWLGRIDPANGNTKYDPKFQGKAAMTSDTSSNTAYLRLSSLTSEDTAVYYCASSGNYGAMDYWGQGTSVTVSS
VL: ESVLTQSPALMSASLGEKVTMTCRASSSVNHMYWYQQKSDASPKLWIYYTSTLAPGVPARFSGSGSGNSYSLTISSMEGEDAATYYCQQFTISPSMYTFGGGTKLEIK
As for B14, in the test with hKLB, the binding result is “binds”.

Source of the values: patent publication US20160244525A1 (Genentech, published 2016).
